From PMC11557686

What was measured:
Assay in all cases: NanoBiT
Conditions in all cases: six technical replicates in each of three independent biological replicates; parent: est. 1.0; read off a plot
SmBiT-SEC24A = SmBiT-SEC24A (UniProt O95486)
SmBiT-SEC24C = SmBiT-SEC24C (UniProt P53992)
LgBiT-SURF4 = LgBiT-SURF4 (UniProt O15260)

Sequence of UniProt P53992 (P53992 whole entry): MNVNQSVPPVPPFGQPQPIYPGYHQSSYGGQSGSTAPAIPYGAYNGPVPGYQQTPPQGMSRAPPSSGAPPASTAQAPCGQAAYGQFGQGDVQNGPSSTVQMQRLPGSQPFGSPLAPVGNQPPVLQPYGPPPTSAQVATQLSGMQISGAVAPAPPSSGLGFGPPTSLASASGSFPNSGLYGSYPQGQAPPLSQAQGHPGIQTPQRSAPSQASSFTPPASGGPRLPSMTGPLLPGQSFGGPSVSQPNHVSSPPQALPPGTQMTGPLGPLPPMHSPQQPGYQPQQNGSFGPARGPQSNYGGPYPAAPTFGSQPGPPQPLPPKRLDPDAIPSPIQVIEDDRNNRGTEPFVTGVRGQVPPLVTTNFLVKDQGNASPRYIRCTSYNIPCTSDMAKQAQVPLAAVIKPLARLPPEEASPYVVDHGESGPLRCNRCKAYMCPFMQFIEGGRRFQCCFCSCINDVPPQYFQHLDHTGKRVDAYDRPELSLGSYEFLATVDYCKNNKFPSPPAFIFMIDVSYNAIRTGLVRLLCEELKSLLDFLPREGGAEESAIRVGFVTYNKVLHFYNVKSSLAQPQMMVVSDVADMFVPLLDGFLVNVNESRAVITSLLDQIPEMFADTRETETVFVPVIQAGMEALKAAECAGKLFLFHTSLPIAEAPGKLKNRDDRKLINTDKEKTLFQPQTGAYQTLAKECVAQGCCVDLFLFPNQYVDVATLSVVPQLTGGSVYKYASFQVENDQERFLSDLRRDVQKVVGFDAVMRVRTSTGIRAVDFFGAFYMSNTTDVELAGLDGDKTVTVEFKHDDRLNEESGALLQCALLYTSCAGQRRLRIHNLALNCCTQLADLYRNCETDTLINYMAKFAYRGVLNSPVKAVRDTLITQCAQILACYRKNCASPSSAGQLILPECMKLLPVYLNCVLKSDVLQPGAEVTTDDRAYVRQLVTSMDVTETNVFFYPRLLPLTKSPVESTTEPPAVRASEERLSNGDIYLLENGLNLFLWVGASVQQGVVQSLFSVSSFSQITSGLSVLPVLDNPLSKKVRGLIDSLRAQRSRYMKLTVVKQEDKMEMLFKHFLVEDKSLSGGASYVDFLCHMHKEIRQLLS
Sequence of LgBiT-SURF4 (O15260 whole entry, change not shown): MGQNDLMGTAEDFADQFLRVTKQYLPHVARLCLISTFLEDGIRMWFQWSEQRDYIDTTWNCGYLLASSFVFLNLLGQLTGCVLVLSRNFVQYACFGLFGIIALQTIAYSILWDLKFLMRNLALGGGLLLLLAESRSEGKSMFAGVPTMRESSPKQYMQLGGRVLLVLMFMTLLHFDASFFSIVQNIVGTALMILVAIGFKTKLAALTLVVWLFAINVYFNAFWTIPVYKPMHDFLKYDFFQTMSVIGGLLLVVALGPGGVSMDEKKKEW
Sequence of SmBiT-SEC24A (O95486 whole entry, change not shown): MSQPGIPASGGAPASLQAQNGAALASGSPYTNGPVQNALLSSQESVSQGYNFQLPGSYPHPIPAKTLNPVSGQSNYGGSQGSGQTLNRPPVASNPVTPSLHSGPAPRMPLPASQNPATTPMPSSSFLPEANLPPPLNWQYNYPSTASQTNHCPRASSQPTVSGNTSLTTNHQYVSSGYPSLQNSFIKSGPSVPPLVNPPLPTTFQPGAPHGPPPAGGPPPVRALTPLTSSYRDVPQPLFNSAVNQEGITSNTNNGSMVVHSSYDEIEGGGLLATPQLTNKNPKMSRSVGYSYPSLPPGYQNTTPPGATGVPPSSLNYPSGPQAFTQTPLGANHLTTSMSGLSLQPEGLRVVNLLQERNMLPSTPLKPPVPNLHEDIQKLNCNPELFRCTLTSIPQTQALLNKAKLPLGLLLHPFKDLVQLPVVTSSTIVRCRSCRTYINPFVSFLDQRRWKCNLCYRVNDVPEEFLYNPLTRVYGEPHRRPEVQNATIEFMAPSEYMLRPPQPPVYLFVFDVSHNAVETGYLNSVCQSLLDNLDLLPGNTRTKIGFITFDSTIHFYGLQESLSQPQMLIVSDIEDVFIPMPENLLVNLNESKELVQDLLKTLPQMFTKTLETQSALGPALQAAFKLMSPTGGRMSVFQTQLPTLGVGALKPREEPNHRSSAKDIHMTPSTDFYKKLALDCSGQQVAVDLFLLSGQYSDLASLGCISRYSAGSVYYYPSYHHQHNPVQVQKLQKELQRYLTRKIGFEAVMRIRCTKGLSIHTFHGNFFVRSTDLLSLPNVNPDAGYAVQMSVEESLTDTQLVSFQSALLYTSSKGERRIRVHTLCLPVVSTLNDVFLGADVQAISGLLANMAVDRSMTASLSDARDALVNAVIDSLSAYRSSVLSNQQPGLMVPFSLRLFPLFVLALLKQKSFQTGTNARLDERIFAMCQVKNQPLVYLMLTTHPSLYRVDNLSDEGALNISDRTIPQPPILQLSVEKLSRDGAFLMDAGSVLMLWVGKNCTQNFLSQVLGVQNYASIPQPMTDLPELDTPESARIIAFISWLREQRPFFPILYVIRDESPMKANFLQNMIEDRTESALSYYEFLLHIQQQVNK

| ratio to parent (SmBiT-SEC24A) | ratio to parent (SmBiT-SEC24C) | ratio to parent (LgBiT-SURF4) | Substance |
| --- | --- | --- | --- |
| 0.9 | 0.69 |  | LgBiT-SURF4 (from UniProt O15260) DE |
| 0.85 | 0.78 |  | LgBiT-SURF4 (from UniProt O15260) EW |
| 0.43 | 0.82 |  | LgBiT-SURF4 (from UniProt O15260) Phe loop |
|  |  | 0.79 | SmBiT-SEC24A (from UniProt O95486) D-site |
